The chains are these.
B1: 15-mer GGTTGGTGTGGTU'GG (ssDNA)
DNA: GGTTGGTGTGGTTGG
modifications: 5-(1-pentynyl)uracil at position 13 [13 = 5-(1-pentynyl)uracil (dU analog written as T)]

One may read the Ki as a measure of affinity in units of concentration, obtained from inhibition or displacement. A lower Ki goes with tighter binding.

The target of this data set is thrombin (UniProt P00734;P00734 P00734:328-363,P00734:364-622). As to the kind of experiment: inhibition; fibrinogen clotting assay.
On to GGTTGGTGTGGTTGG (ssDNA, dU at positions 7 and 9 [n positions 7,9 = modified dU]) [15-mer GGTTGG(dU)G(dU)GGTTGG], for which the Ki worked out at 15 nM. The molecule GGTTGGTGTGGTTGG (ssDNA, PS linkages between 13-14 and 14-15) [15-mer with 3' thioates GGTTGGTGTGGTT*G*G] registered a Ki of 40 nM. This Ki lies about 2.7-fold higher than the previous one. In turn, GGTTGGTGTGGTTGG (ssDNA, dU at positions 3 and 12 [n positions 3,12 = modified dU]) [15-mer GG(dU)TGGTGTGG(dU)TGG] displayed an inhibition constant Ki of 80 nM. On to GGTTGGTGTGGTTGGGT (ssDNA, P(O)NH(CH2CH2OCH3) (MEA) linkages between 15-16 and 16-17) [17-mer with 3' MEA linkages GGTTGGTGTGGTTGG#G#T], for which affinity was put at a Ki of 35 nM.

In turn, B1 showed an inhibition constant Ki of 20 nM. With GGTTGGTGTGGTTGG (ssDNA, PS at all linkages) [15-mer all thioate] the figure was 280 nM.

For the origin of these results see patent publication US5840867.
